Laboratory results as given in paper PMC10465538.

target: MtbFabD3KR-Strep (malonyl CoA-acyl carrier protein transacylase variant that lacks secondary pupylation sites) (Mycobacterium tuberculosis) (UniProt P9WNG5)

Binder	App. initial pupylation rate (in vitro pupylation of FabD, SDS-PAGE densitometry)
CglPafA K106R, K172R, K302R (proteasome accessory factor A from Corynebacterium glutamicum) (enzyme) STVESALTRRIMGIETEYGLTFVDGDSKKLRPDEIARRMFRPIVEKYSSSNIFIPNGSRLYLDVGSHPEYATAECDNLTQLINFEKAGDVIADRMAVDAEESLAREDIAGQVYLFKNNVDSVGNSYGCHENYLVGRSMPLKALGKRLMPFLITRQLICGAGRIHHPNPLDRGESFPLGYCISQRSDHVWEGVSSATTRSRPIINTRDEPHADSHSYRRLHVIVGDANMAEPSIALKVGSTLLVLEMIEADFGLPSLELANDIASIREISRDATGSTLLSLKDGTTMTALQIQQVVFEHASRWLEQRPEPEFSGTSNTEMARVLDLWGRMLKAIESGDFSEVDTEIDWVIKKKLIDRFIQRGNLGLDDPKLAQVDLTYHDIRPGRGLFSVLQSRGMIKRWTTDEAILAAVDTAPDTTRAHLRGRILKAADTLGVPVTVDWMRHKVNRPEPQSVELGDPFSAVNSEVDQLIEYMTVHAESYRS	10.4 h⁻¹
PafA K444A (enzyme) STVESALTRRIMGIETEYGLTFVDGDSKKLRPDEIARRMFRPIVEKYSSSNIFIPNGSRLYLDVGSHPEYATAECDNLTQLINFEKAGDVIADRMAVDAEESLAREDIAGQVYLFKNNVDSVGNSYGCHENYLVGRSMPLKALGKRLMPFLITRQLICGAGRIHHPNPLDRGESFPLGYCISQRSDHVWEGVSSATTRSRPIINTRDEPHADSHSYRRLHVIVGDANMAEPSIALKVGSTLLVLEMIEADFGLPSLELANDIASIREISRDATGSTLLSLKDGTTMTALQIQQVVFEHASRWLEQRPEPEFSGTSNTEMARVLDLWGRMLKAIESGDFSEVDTEIDWVIKKKLIDRFIQRGNLGLDDPKLAQVDLTYHDIRPGRGLFSVLQSRGMIKRWTTDEAILAAVDTAPDTTRAHLRGRILKAADTLGVPVTVDWMRHAVNRPEPQSVELGDPFSAVNSEVDQLIEYMTVHAESYRS	2.65 h⁻¹
PafA R137A (enzyme) STVESALTRRIMGIETEYGLTFVDGDSKKLRPDEIARRMFRPIVEKYSSSNIFIPNGSRLYLDVGSHPEYATAECDNLTQLINFEKAGDVIADRMAVDAEESLAREDIAGQVYLFKNNVDSVGNSYGCHENYLVGASMPLKALGKRLMPFLITRQLICGAGRIHHPNPLDRGESFPLGYCISQRSDHVWEGVSSATTRSRPIINTRDEPHADSHSYRRLHVIVGDANMAEPSIALKVGSTLLVLEMIEADFGLPSLELANDIASIREISRDATGSTLLSLKDGTTMTALQIQQVVFEHASRWLEQRPEPEFSGTSNTEMARVLDLWGRMLKAIESGDFSEVDTEIDWVIKKKLIDRFIQRGNLGLDDPKLAQVDLTYHDIRPGRGLFSVLQSRGMIKRWTTDEAILAAVDTAPDTTRAHLRGRILKAADTLGVPVTVDWMRHKVNRPEPQSVELGDPFSAVNSEVDQLIEYMTVHAESYRS	3.1 h⁻¹
PafA R137A, R218A (enzyme) STVESALTRRIMGIETEYGLTFVDGDSKKLRPDEIARRMFRPIVEKYSSSNIFIPNGSRLYLDVGSHPEYATAECDNLTQLINFEKAGDVIADRMAVDAEESLAREDIAGQVYLFKNNVDSVGNSYGCHENYLVGASMPLKALGKRLMPFLITRQLICGAGRIHHPNPLDRGESFPLGYCISQRSDHVWEGVSSATTRSRPIINTRDEPHADSHSYARLHVIVGDANMAEPSIALKVGSTLLVLEMIEADFGLPSLELANDIASIREISRDATGSTLLSLKDGTTMTALQIQQVVFEHASRWLEQRPEPEFSGTSNTEMARVLDLWGRMLKAIESGDFSEVDTEIDWVIKKKLIDRFIQRGNLGLDDPKLAQVDLTYHDIRPGRGLFSVLQSRGMIKRWTTDEAILAAVDTAPDTTRAHLRGRILKAADTLGVPVTVDWMRHKVNRPEPQSVELGDPFSAVNSEVDQLIEYMTVHAESYRS	0.17 h⁻¹
PafA R442A (enzyme) STVESALTRRIMGIETEYGLTFVDGDSKKLRPDEIARRMFRPIVEKYSSSNIFIPNGSRLYLDVGSHPEYATAECDNLTQLINFEKAGDVIADRMAVDAEESLAREDIAGQVYLFKNNVDSVGNSYGCHENYLVGRSMPLKALGKRLMPFLITRQLICGAGRIHHPNPLDRGESFPLGYCISQRSDHVWEGVSSATTRSRPIINTRDEPHADSHSYRRLHVIVGDANMAEPSIALKVGSTLLVLEMIEADFGLPSLELANDIASIREISRDATGSTLLSLKDGTTMTALQIQQVVFEHASRWLEQRPEPEFSGTSNTEMARVLDLWGRMLKAIESGDFSEVDTEIDWVIKKKLIDRFIQRGNLGLDDPKLAQVDLTYHDIRPGRGLFSVLQSRGMIKRWTTDEAILAAVDTAPDTTRAHLRGRILKAADTLGVPVTVDWMAHKVNRPEPQSVELGDPFSAVNSEVDQLIEYMTVHAESYRS	2.87 h⁻¹
PafA R218A (enzyme) STVESALTRRIMGIETEYGLTFVDGDSKKLRPDEIARRMFRPIVEKYSSSNIFIPNGSRLYLDVGSHPEYATAECDNLTQLINFEKAGDVIADRMAVDAEESLAREDIAGQVYLFKNNVDSVGNSYGCHENYLVGRSMPLKALGKRLMPFLITRQLICGAGRIHHPNPLDRGESFPLGYCISQRSDHVWEGVSSATTRSRPIINTRDEPHADSHSYARLHVIVGDANMAEPSIALKVGSTLLVLEMIEADFGLPSLELANDIASIREISRDATGSTLLSLKDGTTMTALQIQQVVFEHASRWLEQRPEPEFSGTSNTEMARVLDLWGRMLKAIESGDFSEVDTEIDWVIKKKLIDRFIQRGNLGLDDPKLAQVDLTYHDIRPGRGLFSVLQSRGMIKRWTTDEAILAAVDTAPDTTRAHLRGRILKAADTLGVPVTVDWMRHKVNRPEPQSVELGDPFSAVNSEVDQLIEYMTVHAESYRS	5.05 h⁻¹
PafA site 3 alanine double mutant (R442A, K444A) (enzyme) STVESALTRRIMGIETEYGLTFVDGDSKKLRPDEIARRMFRPIVEKYSSSNIFIPNGSRLYLDVGSHPEYATAECDNLTQLINFEKAGDVIADRMAVDAEESLAREDIAGQVYLFKNNVDSVGNSYGCHENYLVGRSMPLKALGKRLMPFLITRQLICGAGRIHHPNPLDRGESFPLGYCISQRSDHVWEGVSSATTRSRPIINTRDEPHADSHSYRRLHVIVGDANMAEPSIALKVGSTLLVLEMIEADFGLPSLELANDIASIREISRDATGSTLLSLKDGTTMTALQIQQVVFEHASRWLEQRPEPEFSGTSNTEMARVLDLWGRMLKAIESGDFSEVDTEIDWVIKKKLIDRFIQRGNLGLDDPKLAQVDLTYHDIRPGRGLFSVLQSRGMIKRWTTDEAILAAVDTAPDTTRAHLRGRILKAADTLGVPVTVDWMAHAVNRPEPQSVELGDPFSAVNSEVDQLIEYMTVHAESYRS	2.64 h⁻¹

target: MtbPanB-Strep (ketopantoate hydroxymethyltransferase) (Mycobacterium tuberculosis) (UniProt P9WIL7)

Binder	in vitro pupylation of PanB, reduction against PafA (gel densitometry)
PafA site 2 triple alanine variant (R137A/R207A/R218A) (enzyme) STVESALTRRIMGIETEYGLTFVDGDSKKLRPDEIARRMFRPIVEKYSSSNIFIPNGSRLYLDVGSHPEYATAECDNLTQLINFEKAGDVIADRMAVDAEESLAREDIAGQVYLFKNNVDSVGNSYGCHENYLVGASMPLKALGKRLMPFLITRQLICGAGRIHHPNPLDRGESFPLGYCISQRSDHVWEGVSSATTRSRPIINTADEPHADSHSYARLHVIVGDANMAEPSIALKVGSTLLVLEMIEADFGLPSLELANDIASIREISRDATGSTLLSLKDGTTMTALQIQQVVFEHASRWLEQRPEPEFSGTSNTEMARVLDLWGRMLKAIESGDFSEVDTEIDWVIKKKLIDRFIQRGNLGLDDPKLAQVDLTYHDIRPGRGLFSVLQSRGMIKRWTTDEAILAAVDTAPDTTRAHLRGRILKAADTLGVPVTVDWMRHKVNRPEPQSVELGDPFSAVNSEVDQLIEYMTVHAESYRS	70 % reduction

target: MtbPanB-Strep (ketopantoate hydroxymethyltransferase) (Mycobacterium tuberculosis) (UniProt P9WIL7); remark: another data set of the same source

Binder	in vitro pupylation of PanB, reduction against PafA (gel densitometry)
PafA R207A (enzyme) STVESALTRRIMGIETEYGLTFVDGDSKKLRPDEIARRMFRPIVEKYSSSNIFIPNGSRLYLDVGSHPEYATAECDNLTQLINFEKAGDVIADRMAVDAEESLAREDIAGQVYLFKNNVDSVGNSYGCHENYLVGRSMPLKALGKRLMPFLITRQLICGAGRIHHPNPLDRGESFPLGYCISQRSDHVWEGVSSATTRSRPIINTADEPHADSHSYRRLHVIVGDANMAEPSIALKVGSTLLVLEMIEADFGLPSLELANDIASIREISRDATGSTLLSLKDGTTMTALQIQQVVFEHASRWLEQRPEPEFSGTSNTEMARVLDLWGRMLKAIESGDFSEVDTEIDWVIKKKLIDRFIQRGNLGLDDPKLAQVDLTYHDIRPGRGLFSVLQSRGMIKRWTTDEAILAAVDTAPDTTRAHLRGRILKAADTLGVPVTVDWMRHKVNRPEPQSVELGDPFSAVNSEVDQLIEYMTVHAESYRS	50 % reduction
